# Results from US20180141972.
# T1: Spycatcher-WELQ-Tem1 fusion protein (Spycatcher followed by a SplB protease site with a P1' methionine and the lactamase Tem1), P62593
# T1 chain: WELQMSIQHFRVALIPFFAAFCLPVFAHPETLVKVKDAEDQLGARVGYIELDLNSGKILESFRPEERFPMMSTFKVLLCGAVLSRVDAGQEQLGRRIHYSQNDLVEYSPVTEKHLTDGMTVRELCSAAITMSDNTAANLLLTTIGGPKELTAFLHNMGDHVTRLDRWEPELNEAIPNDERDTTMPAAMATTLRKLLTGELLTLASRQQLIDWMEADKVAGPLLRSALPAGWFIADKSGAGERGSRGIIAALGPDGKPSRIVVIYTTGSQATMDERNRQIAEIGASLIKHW
# Assays:
# [1] = molecular target: ePDZ-b-ENLYFQ-OFP fusion protein
# [2] = molecular target: HIS-ePDZ-b-ENLYFQ-OFP fusion substrate protein
# [3] = molecular target: ePDZ-b-WELQ-OFP fusion substrate
# [4] = molecular target: HIS-ePDZ-b-WELQ-OFP fusion substrate protein
# [5] = molecular target: Spycatcher-WELQ-LSSmOrange fusion protein
# [6] = molecular target: T1, Spycatcher-WELQ-Tem1 fusion protein …
protein,measurement,setting,value
TEV protease fused to the optimised 4-amino acid truncated ARVCF peptide (protein) GESLFKGPRDYNPISSTICHLTNESDGHTTSLYGIGFGPFIITNKHLFRRNNGTLLVQSLHGVFKVKNTTTLQQHLIDGRDMIIIRMPKDFPPFPQKLKFREPQREERICLVTTNFQTKSMSSMVSDTSCTFPSSDGIFWKHWIQTKDGQCGSPLVSTRDGFIVGIHSASNFTNTNNYFTSVPKNFMELLTNQEAQQWVSGWRLNADSVLWGGHKVFMSKPEEPFQPVKEATQLMNELVYSQDSWV,"cleavage of the fusion substrate to native OFP (gel, FIG. 6A)",[1],The results show clearly improved cleavage when TEV is fused to the optimised 4-amino acid truncated ARVCF peptide (TEV-AP4)
same,"generation of native OFP over time (gel, FIG. 6A)",[1],Native OFP (arrowed red) was rapidly generated through use of TEV-AP4 compared to endogenous TEV
same,"incubation time to near complete cleavage (gel, FIG. 6A)",[1],near completion around 2.5 hours
same,"incubation time to notable cleavage (gel, FIG. 6A)",[1],Notable cleavage was observed after only 30 minutes incubation
HIS-TEV-AP4 (protein) GESLFKGPRDYNPISSTICHLTNESDGHTTSLYGIGFGPFIITNKHLFRRNNGTLLVQSLHGVFKVKNTTTLQQHLIDGRDMIIIRMPKDFPPFPQKLKFREPQREERICLVTTNFQTKSMSSMVSDTSCTFPSSDGIFWKHWIQTKDGQCGSPLVSTRDGFIVGIHSASNFTNTNNYFTSVPKNFMELLTNQEAQQWVSGWRLNADSVLWGGHKVFMSKPEEPFQPVKEATQLMNELVYSQDSWV,"yield of native OFP after on-column cleavage (gel, FIG. 8, lanes 6 and 15)",[2],the yield of native OFP was significantly increased when histidine tagged TEV-AP4 was used compared to histidine tagged TEV
"wild-type TEV protease, untagged (protein) GESLFKGPRDYNPISSTICHLTNESDGHTTSLYGIGFGPFIITNKHLFRRNNGTLLVQSLHGVFKVKNTTTLQQHLIDGRDMIIIRMPKDFPPFPQKLKFREPQREERICLVTTNFQTKSMSSMVSDTSCTFPSSDGIFWKHWIQTKDGQCGSPLVSTRDGFIVGIHSASNFTNTNNYFTSVPKNFMELLTNQEAQQWVSGWRLNADSVLWGGHKVFMSKPEEPFQPVKEATQLMNELVYSQ","cleavage of the fusion substrate to native OFP (gel, FIG. 6A)",[1],wild-type TEV protease did not show significant cleavage even after 24 hours incubation
same,"generation of native OFP over time (gel, FIG. 6A)",[1],Native OFP (arrowed red) was rapidly generated through use of TEV-AP4 compared to endogenous TEV
HIS-TEV (protein) GESLFKGPRDYNPISSTICHLTNESDGHTTSLYGIGFGPFIITNKHLFRRNNGTLLVQSLHGVFKVKNTTTLQQHLIDGRDMIIIRMPKDFPPFPQKLKFREPQREERICLVTTNFQTKSMSSMVSDTSCTFPSSDGIFWKHWIQTKDGQCGSPLVSTRDGFIVGIHSASNFTNTNNYFTSVPKNFMELLTNQEAQQWVSGWRLNADSVLWGGHKVFMSKPEEPFQPVKEATQLMNELVYSQ,"yield of native OFP after on-column cleavage (gel, FIG. 8, lanes 6 and 15)",[2],the yield of native OFP was significantly increased when histidine tagged TEV-AP4 was used compared to histidine tagged TEV
SplB protease with ARVCF peptide truncated by 4 amino acids (DSWV) (protein) ENNVTKVKDTNIFPYTGVVAFKSATGFVVGKNTILTNKHVSKNYKVGDRITAHPNSDKGNGGIYSIKKIINYPGKEDVSVIQVEERAIERGPKGFNFNDNVTPFKYAAGAKAGERIKVIGYPHPYKNKYVLYESTGPVMSVEGSSIVYSAHTESGNSGSPVLNSNNELVGIHFASDVKNDDNRNAYGVYFTPEIKKFIAENIDKDSWV,"cleavage activity at sub-stoichiometric protease (gel, FIG. 5, lanes 16, 18-19)",[3],"At sub-stoichiometric amounts, 3 and 4 amino acid truncations of the ARVCF peptide showed clear improvements in activity compared to full-length peptide"
same,"cleavage efficiency at high protease concentration (gel, FIG. 5, lanes 2-5)",[3],"At high protease concentration, no variation was observed in cleavage efficiency"
same,"cleavage to yield native OFP (gel, FIG. 5)",[3],These tagged proteases all showed improved cleavage to yield native OFP (red arrow) compared to SplB protease tagged with a non-specific C-terminal peptide (SplB-CON) and commercial nontagged SplB protease (SplB-COM)
SplB protease with full-length ARVCF peptide tag at C-terminus (protein) ENNVTKVKDTNIFPYTGVVAFKSATGFVVGKNTILTNKHVSKNYKVGDRITAHPNSDKGNGGIYSIKKIINYPGKEDVSVIQVEERAIERGPKGFNFNDNVTPFKYAAGAKAGERIKVIGYPHPYKNKYVLYESTGPVMSVEGSSIVYSAHTESGNSGSPVLNSNNELVGIHFASDVKNDDNRNAYGVYFTPEIKKFIAENIDKPQPVDSWV,"cleavage efficiency at high protease concentration (gel, FIG. 5, lanes 2-5)",[3],"At high protease concentration, no variation was observed in cleavage efficiency"
same,"cleavage of the fusion substrate to native OFP (gel, FIG. 5)",[3],this was notably more efficient for SplB-AP compared to SplB-COM and SplB fused to a control peptide that does not interact with ePDZ-b (SplB-CON)
same,"cleavage to yield native OFP (gel, FIG. 5)",[3],These tagged proteases all showed improved cleavage to yield native OFP (red arrow) compared to SplB protease tagged with a non-specific C-terminal peptide (SplB-CON) and commercial nontagged SplB protease (SplB-COM)
HIS-SplB-ARVC-pep (protein) ENNVTKVKDTNIFPYTGVVAFKSATGFVVGKNTILTNKHVSKNYKVGDRITAHPNSDKGNGGIYSIKKIINYPGKEDVSVIQVEERAIERGPKGFNFNDNVTPFKYAAGAKAGERIKVIGYPHPYKNKYVLYESTGPVMSVEGSSIVYSAHTESGNSGSPVLNSNNELVGIHFASDVKNDDNRNAYGVYFTPEIKKFIAENIDKPQPVDSWV,"on-column cleavage to native OFP (gel, FIG. 7)",[4],"Addition of 30 mM imidazole alleviated this constraint, resulting in improved cleavage efficiencies using histidine tagged ePDZ-b -WELQ-OFP and SplB-AP proteins"
SplB protease with shortened ARVC-pep tag (the least shortened of the 3 progressively shortened peptide tags) (protein) ENNVTKVKDTNIFPYTGVVAFKSATGFVVGKNTILTNKHVSKNYKVGDRITAHPNSDKGNGGIYSIKKIINYPGKEDVSVIQVEERAIERGPKGFNFNDNVTPFKYAAGAKAGERIKVIGYPHPYKNKYVLYESTGPVMSVEGSSIVYSAHTESGNSGSPVLNSNNELVGIHFASDVKNDDNRNAYGVYFTPEIKKFIAENIDK,"cleavage efficiency at high protease concentration (gel, FIG. 5, lanes 2-5)",[3],"At high protease concentration, no variation was observed in cleavage efficiency"
same,"cleavage to yield native OFP (gel, FIG. 5)",[3],These tagged proteases all showed improved cleavage to yield native OFP (red arrow) compared to SplB protease tagged with a non-specific C-terminal peptide (SplB-CON) and commercial nontagged SplB protease (SplB-COM)
"Commercial SplB protease, non-tagged (protein) ENNVTKVKDTNIFPYTGVVAFKSATGFVVGKNTILTNKHVSKNYKVGDRITAHPNSDKGNGGIYSIKKIINYPGKEDVSVIQVEERAIERGPKGFNFNDNVTPFKYAAGAKAGERIKVIGYPHPYKNKYVLYESTGPVMSVEGSSIVYSAHTESGNSGSPVLNSNNELVGIHFASDVKNDDNRNAYGVYFTPEIKKFIAENIDK","cleavage of the fusion protein to native LSSmOrange (gel, FIG. 4)",[5],A similar experiment with LSSmOrange replacing Tem1 yielded the same result
same,"cleavage of the fusion protein to native Tem1 (gel, FIG. 3)",[6],"Commercial SplB protease, lacking the fused spytag, was only able to produce minimal native Tem1"
same,"cleavage of the fusion substrate to native OFP (gel, FIG. 5)",[3],Neither SplB-COM or Spl-CON was able to completely digest the fusion substrate
